In PMC3546673:

Key:
[1] = biological target: F-actin (actin filaments) (UniProt P68135); test: single filament binding assay (fluorescence microscopy); actin filaments from 1 μM G-actin with rhodamine-phalloidin (1 μM) and Alexa-488-labeled trx protein (5 μM), 22 °C, 30 min; diluted 1:50 and put on poly-L-lysine-coated coverslips
[2] = biological target: gelsolin-capped actin filaments (UniProt P68135); test: single filament binding assay (fluorescence microscopy); gelsolin-capped actin filaments labeled with rhodamine-phalloidin, incubated with Alexa-488-conjugated trx-PT or mutant (5 μM), 22 °C, 30 min; diluted 1:50 and put on poly-L-lysine-coated coverslips

Q: With “recombinant thioredoxin-phostensin (trx-PT) (natural protein)” as the substance, how does the percent localized at the filament end [1] read?
A: 96%

Q: For trx-PT(35–165) (domain or fragment), which percent localized at a filament end [2] is on record?
A: 96%

Q: How did the percent bound to the sides of actin filaments [1] turn out when trx-PT(125–165) (domain or fragment) was run?
A: 98%
